The values below come from US6727407.

One data set concerns the target T1, GST-LHY, Q6R0H1.
T1 chain: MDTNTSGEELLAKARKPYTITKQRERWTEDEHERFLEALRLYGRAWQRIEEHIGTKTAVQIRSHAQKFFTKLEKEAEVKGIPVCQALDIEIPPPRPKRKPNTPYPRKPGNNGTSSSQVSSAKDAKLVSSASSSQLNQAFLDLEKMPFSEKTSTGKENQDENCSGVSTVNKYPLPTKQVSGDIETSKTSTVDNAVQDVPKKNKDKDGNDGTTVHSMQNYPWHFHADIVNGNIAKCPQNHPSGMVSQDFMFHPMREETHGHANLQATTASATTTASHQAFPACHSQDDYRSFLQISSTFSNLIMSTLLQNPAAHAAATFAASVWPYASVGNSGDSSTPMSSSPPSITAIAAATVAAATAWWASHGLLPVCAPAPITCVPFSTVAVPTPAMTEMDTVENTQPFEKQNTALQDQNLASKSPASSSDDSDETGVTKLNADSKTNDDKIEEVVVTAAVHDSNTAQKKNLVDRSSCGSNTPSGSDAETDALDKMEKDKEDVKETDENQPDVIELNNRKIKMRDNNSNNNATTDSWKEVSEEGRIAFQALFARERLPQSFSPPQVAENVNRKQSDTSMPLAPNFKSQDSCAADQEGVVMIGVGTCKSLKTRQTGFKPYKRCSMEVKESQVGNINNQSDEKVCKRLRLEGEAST

Another data set deals with T2, His-tagged CKB1, P40228.
T2 chain: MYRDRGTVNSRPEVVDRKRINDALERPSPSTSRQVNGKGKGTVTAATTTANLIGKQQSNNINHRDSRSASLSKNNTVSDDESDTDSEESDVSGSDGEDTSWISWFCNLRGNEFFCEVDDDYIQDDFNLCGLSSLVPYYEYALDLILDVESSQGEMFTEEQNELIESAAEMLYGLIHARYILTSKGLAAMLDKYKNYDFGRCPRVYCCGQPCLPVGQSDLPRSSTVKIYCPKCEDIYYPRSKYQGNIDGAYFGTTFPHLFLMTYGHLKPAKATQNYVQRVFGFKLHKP

The target of a further data set is T3, His-tagged CKB3.
T3 chain: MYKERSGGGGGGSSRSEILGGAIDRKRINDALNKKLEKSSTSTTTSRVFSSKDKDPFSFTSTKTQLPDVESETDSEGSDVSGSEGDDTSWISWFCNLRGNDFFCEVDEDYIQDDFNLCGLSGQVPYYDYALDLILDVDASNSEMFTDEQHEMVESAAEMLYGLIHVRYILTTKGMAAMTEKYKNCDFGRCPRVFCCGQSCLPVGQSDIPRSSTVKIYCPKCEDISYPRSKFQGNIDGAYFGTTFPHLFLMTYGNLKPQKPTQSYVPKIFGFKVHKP

Data set [1] addresses glutathione-S-transferase (GST) [GST: P08515].

glutathione-S-transferase (GST) [GST: P08515], sequence (P08515 whole entry): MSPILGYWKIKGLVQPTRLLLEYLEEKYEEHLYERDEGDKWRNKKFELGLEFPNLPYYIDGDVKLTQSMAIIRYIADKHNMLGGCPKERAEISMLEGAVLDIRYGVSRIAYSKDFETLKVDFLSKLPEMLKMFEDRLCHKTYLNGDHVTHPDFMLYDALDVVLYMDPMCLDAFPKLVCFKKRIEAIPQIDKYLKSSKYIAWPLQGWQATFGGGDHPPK
GST-CCA1, P92973, sequence (P92973 whole entry): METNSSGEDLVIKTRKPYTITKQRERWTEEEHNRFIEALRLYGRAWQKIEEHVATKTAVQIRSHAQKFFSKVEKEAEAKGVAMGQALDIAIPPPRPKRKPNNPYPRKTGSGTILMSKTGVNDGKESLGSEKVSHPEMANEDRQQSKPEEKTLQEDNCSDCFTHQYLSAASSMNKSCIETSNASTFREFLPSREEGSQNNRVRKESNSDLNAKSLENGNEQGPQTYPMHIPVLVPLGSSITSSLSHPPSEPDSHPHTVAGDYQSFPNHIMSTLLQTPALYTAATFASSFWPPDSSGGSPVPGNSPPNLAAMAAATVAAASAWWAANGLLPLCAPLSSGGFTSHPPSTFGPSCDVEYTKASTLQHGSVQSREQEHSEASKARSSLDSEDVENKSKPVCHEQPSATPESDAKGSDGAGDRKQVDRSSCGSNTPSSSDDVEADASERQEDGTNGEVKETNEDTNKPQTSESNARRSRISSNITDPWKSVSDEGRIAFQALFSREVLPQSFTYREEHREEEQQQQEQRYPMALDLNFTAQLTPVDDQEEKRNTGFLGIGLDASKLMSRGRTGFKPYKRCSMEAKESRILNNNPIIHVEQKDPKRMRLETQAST

B1: CKA1 (α-subunit of Arabidopsis protein kinase CK2) (protein)
chain: MSKARVYTEVNVIRPKDYWDYESLIVQWGEQDDYEVVRKVGRGKYSEVFEGINVNSKEKCIIKILKPVKKKKIRREIKILQNLCGGPNIVKLLDVVRDQHSKTPSLIFEYVNSTDFKVLYPTLTDYDIRYYIYELLKALDFCHSQGIMHRDVKPHNVMIDHELRKLRLIDWGLAEFYHPGKEYNVRVASRYFKGPELLVDLQDYDYSLDMWSLGCMFAGMIFRKEPFFYGHDNQDQLVKIAKVLGTDELNAYLNKYQLELDPQLEALVGRHSRKPWSKFINADNQHLVSPEAIDFLDKLLRYDHQDRLTAKEAMAHAYFAQVRAAETSRMRSQ
As to B1, the “in vitro phosphorylation with [γ-32P]ATP, SDS-PAGE autoradiography” value is given as “a large amount of CKA1 (280 ng) phosphorylates GST-CCA1 but not GST” with GST-CCA1, P92973; “CKA1, the α-subunit of CK2, could phosphorylate LHY” with GST-LHY, Q6R0H1; “a large amount of CKA1 (280 ng) phosphorylates GST-CCA1 but not GST” in data set [1]. The “phosphorylation of GST-CCA1 by 14 ng of CKA1 with 35 ng of β-subunit” value with His-tagged CKB1, P40228 is “a strong stimulation of the CCA1 phosphorylation was observed by adding either CKB1 or CKB3”; with His-tagged CKB3, “a strong stimulation of the CCA1 phosphorylation was observed by adding either CKB1 or CKB3”. The “phosphorylation of GST-LHY by CKA1 with added β-subunit” value with His-tagged CKB1, P40228 is listed as “this phosphorylation was enhanced by adding either CKB1 or CKB3”; with His-tagged CKB3 it was “this phosphorylation was enhanced by adding either CKB1 or CKB3”.
